The supplement of paper PMC10065799, “High-throughput profiling of sequence recognition by tyrosine kinases and SH2 domains using bacterial peptide display” (eLife, 2023)

The sequences below were run against FGFR1 (UniProt P11362) (assay: phosphorylation enrichment, bacterial display (enrichment ratio); higher = better substrate or ligand; peptides without Tyr show the background).
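Further: 11-residue human phosphosite peptides and single-mutation variants displayed on the E. coli surface, counted by deep sequencing, each peptide's frequency after selection divided by its frequency in the unselected input library; frequency after pTyr selection over input frequency; kinase dosed for 20-30% of maximal phosphorylation in three min.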

Sequence of FGFR1 (P11362 whole entry, looked up): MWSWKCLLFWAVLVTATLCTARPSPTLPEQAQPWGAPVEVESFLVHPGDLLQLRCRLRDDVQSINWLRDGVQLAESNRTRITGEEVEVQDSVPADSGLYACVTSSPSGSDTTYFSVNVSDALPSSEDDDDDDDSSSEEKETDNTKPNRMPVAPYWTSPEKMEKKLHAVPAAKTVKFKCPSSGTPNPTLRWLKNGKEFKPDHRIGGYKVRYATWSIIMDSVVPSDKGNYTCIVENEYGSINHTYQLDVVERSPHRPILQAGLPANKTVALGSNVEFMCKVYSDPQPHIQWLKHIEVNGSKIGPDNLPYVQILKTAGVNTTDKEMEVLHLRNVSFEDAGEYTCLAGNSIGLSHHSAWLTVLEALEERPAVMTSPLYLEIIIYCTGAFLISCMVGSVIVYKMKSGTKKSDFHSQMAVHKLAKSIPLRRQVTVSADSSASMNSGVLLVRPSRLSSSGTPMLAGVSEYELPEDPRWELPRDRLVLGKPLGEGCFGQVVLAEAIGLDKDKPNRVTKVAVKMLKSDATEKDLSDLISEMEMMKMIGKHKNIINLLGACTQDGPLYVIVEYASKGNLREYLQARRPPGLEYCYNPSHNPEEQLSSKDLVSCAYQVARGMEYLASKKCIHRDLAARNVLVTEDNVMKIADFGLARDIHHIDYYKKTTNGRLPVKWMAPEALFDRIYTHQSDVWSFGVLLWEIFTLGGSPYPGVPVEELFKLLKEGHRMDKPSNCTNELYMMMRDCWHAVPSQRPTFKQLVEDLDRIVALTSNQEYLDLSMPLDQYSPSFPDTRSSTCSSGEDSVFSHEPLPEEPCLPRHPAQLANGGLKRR

Work on TCRPPYYHRNC [HGD_Y333_F329C] yielded a phosphorylation enrichment of 0.398.

Each sequence was assayed on AncSZ in the same assay as above.

In order of falling phosphorylation enrichment:
1. LVMFIYAIFGM [SCN1A_Y1684]  1.49
2. LINSVYGCSRQ [TMPRSS6_Y290_T287N]  1.43
3. DGQVNYEEFVQ [CALM1_Y139]  1.33
4. SAEEDYMADAK [KCNT1_Y876]  1.3
5. RYVTRYIYNRE [HLA-DQB1_Y62]  1.23
6. GSQERYFELVE [TSC2_Y407]  1.13
7. GVIRHYVVCST [BTK_Y334]  1.13
8. GTTIHYNYMCN [TP53_Y234_C229G]  1.12
9. FLQTDDTSQVS [FRMPD1_Y846_Y846D]  1.05
10. DFLSSYSAVNQ [OAT_Y85]  1.04
11. LKSEMYQKLFK [RGS13_Y146_L150F]  1.02
12. FPHVISARLWR [SMAD4_Y95_Y95S]  1
13. TKYVAYIESQG [KDM4B_Y34_N29T]  0.924
14. YEREQYADRTR [RBM4_Y355_A359T]  0.897
15. PLQKTYNYNVL [SLC4A1_Y553]  0.872
16. PTTKTYLPHFD [HBA1_Y43_F44L]  0.839
17. FFRNVYHLASV [RBL1_Y796_K794N_YF]  0.803
18. SIKGKYVTALF [KCNH2_Y611_D609G_YF]  0.771
19. YRDALYKSMVD [PHEX_Y250_F252S]  0.757
20. HKETGYVVERP [BCLAF1_Y466_L461H]  0.746
21. QKFMAYPSQGG [HLCS_Y236_L237P]  0.625
22. TGEKLYQHKEF [ZNF283_Y627_R629H]  0.62
23. AKRKNYAPVAM [CFAP47_Y557]  0.562
24. TKDTFYKQRMF [GBA_Y451_P454R]  0.56
25. ELTSVYGSRAR [SENP1_Y349_D350G]  0.523
26. NVTGHYIPPFH [PPA2_Y59_S61P]  0.518
27. GLGGGYGGASG [KRT8_Y54]  0.429
28. LKALKYKSMKI [ITGA11_Y1098]  0.374
29. TCRPPYYHRNC [HGD_Y333_F329C]  0.243

These sequences were tested on c-Src in the same assay as above.

In order of rising phosphorylation enrichment:
1. TCRPPYYHRNC [HGD_Y333_F329C]  0.251
2. GLGGGYGGASG [KRT8_Y54]  0.317
3. LKALKYKSMKI [ITGA11_Y1098]  0.322
4. TKDTFYKQRMF [GBA_Y451_P454R]  0.351
5. TGEKLYQHKEF [ZNF283_Y627_R629H]  0.417
6. TKYVAYIESQG [KDM4B_Y34_N29T]  0.418
7. AKRKNYAPVAM [CFAP47_Y557]  0.432
8. YEREQYADRTR [RBM4_Y355_A359T]  0.443
9. NVTGHYIPPFH [PPA2_Y59_S61P]  0.443
10. GVIRHYVVCST [BTK_Y334]  0.444
11. YRDALYKSMVD [PHEX_Y250_F252S]  0.449
12. PTTKTYLPHFD [HBA1_Y43_F44L]  0.458
13. SAEEDYMADAK [KCNT1_Y876]  0.473
14. FLQTDDTSQVS [FRMPD1_Y846_Y846D]  0.476
15. SIKGKYVTALF [KCNH2_Y611_D609G_YF]  0.495
16. FPHVISARLWR [SMAD4_Y95_Y95S]  0.498
17. GSQERYFELVE [TSC2_Y407]  0.509
18. GTTIHYNYMCN [TP53_Y234_C229G]  0.529
19. PLQKTYNYNVL [SLC4A1_Y553]  0.565
20. DGQVNYEEFVQ [CALM1_Y139]  0.576
21. DFLSSYSAVNQ [OAT_Y85]  0.61
22. LKSEMYQKLFK [RGS13_Y146_L150F]  0.626
23. HKETGYVVERP [BCLAF1_Y466_L461H]  0.652
24. QKFMAYPSQGG [HLCS_Y236_L237P]  0.779
25. FFRNVYHLASV [RBL1_Y796_K794N_YF]  0.862
26. RYVTRYIYNRE [HLA-DQB1_Y62]  1.09
27. ELTSVYGSRAR [SENP1_Y349_D350G]  1.96
28. LVMFIYAIFGM [SCN1A_Y1684]  1.99
29. LINSVYGCSRQ [TMPRSS6_Y290_T287N]  5.15

The sequences below were run against EPHB2 (UniProt P29323) in the same assay as above.
Sequence of EPHB2 (P29323 whole entry, looked up): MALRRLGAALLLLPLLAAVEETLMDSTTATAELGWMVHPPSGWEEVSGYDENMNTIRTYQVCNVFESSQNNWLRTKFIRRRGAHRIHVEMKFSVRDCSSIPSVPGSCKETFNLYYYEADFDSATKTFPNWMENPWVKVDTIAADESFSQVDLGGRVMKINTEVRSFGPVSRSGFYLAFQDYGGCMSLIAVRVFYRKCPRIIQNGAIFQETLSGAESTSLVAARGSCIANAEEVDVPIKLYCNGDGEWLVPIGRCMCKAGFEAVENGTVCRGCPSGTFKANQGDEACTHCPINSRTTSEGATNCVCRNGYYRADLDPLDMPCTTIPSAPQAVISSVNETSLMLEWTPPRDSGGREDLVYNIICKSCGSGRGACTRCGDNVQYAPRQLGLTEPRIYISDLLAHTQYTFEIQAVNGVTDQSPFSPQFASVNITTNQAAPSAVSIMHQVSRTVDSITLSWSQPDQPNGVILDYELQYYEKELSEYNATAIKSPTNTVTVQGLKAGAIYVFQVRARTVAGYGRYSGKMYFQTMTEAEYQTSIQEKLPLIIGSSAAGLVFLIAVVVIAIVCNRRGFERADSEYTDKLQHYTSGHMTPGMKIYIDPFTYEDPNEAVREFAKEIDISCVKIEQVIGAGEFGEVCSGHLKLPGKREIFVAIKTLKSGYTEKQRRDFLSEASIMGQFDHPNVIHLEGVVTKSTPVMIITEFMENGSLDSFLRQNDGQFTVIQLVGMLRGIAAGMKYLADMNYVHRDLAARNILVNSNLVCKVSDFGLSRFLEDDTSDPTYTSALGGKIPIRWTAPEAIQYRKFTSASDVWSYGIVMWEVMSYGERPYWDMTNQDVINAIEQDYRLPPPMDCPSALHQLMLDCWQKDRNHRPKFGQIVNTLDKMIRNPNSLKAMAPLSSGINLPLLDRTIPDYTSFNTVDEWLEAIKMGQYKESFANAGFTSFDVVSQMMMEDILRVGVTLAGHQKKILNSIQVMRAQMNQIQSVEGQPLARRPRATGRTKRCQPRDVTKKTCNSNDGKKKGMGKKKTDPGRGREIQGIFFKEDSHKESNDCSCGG

In order of rising phosphorylation enrichment:
1. LKALKYKSMKI [ITGA11_Y1098]  0.31
2. GLGGGYGGASG [KRT8_Y54]  0.359
3. NVTGHYIPPFH [PPA2_Y59_S61P]  0.393
4. TGEKLYQHKEF [ZNF283_Y627_R629H]  0.402
5. TKDTFYKQRMF [GBA_Y451_P454R]  0.406
6. SIKGKYVTALF [KCNH2_Y611_D609G_YF]  0.409
7. YEREQYADRTR [RBM4_Y355_A359T]  0.419
8. ELTSVYGSRAR [SENP1_Y349_D350G]  0.42
9. AKRKNYAPVAM [CFAP47_Y557]  0.425
10. PTTKTYLPHFD [HBA1_Y43_F44L]  0.489
11. DFLSSYSAVNQ [OAT_Y85]  0.493
12. HKETGYVVERP [BCLAF1_Y466_L461H]  0.502
13. FFRNVYHLASV [RBL1_Y796_K794N_YF]  0.515
14. QKFMAYPSQGG [HLCS_Y236_L237P]  0.525
15. FPHVISARLWR [SMAD4_Y95_Y95S]  0.547
16. GSQERYFELVE [TSC2_Y407]  0.571
17. TKYVAYIESQG [KDM4B_Y34_N29T]  0.611
18. LKSEMYQKLFK [RGS13_Y146_L150F]  0.614
19. FLQTDDTSQVS [FRMPD1_Y846_Y846D]  0.648
20. SAEEDYMADAK [KCNT1_Y876]  0.662
21. PLQKTYNYNVL [SLC4A1_Y553]  0.689
22. GTTIHYNYMCN [TP53_Y234_C229G]  0.704
23. GVIRHYVVCST [BTK_Y334]  0.712
24. RYVTRYIYNRE [HLA-DQB1_Y62]  0.783
25. YRDALYKSMVD [PHEX_Y250_F252S]  0.805
26. LINSVYGCSRQ [TMPRSS6_Y290_T287N]  1
27. LVMFIYAIFGM [SCN1A_Y1684]  1.03
28. DGQVNYEEFVQ [CALM1_Y139]  1.28

Each sequence was assayed on c-Abl (mouse) in the same assay as above.

In order of falling phosphorylation enrichment:
1. LVMFIYAIFGM [SCN1A_Y1684]  1.55
2. LINSVYGCSRQ [TMPRSS6_Y290_T287N]  1.37
3. HKETGYVVERP [BCLAF1_Y466_L461H]  1.28
4. QKFMAYPSQGG [HLCS_Y236_L237P]  1.12
5. FLQTDDTSQVS [FRMPD1_Y846_Y846D]  1.07
6. DGQVNYEEFVQ [CALM1_Y139]  0.957
7. PLQKTYNYNVL [SLC4A1_Y553]  0.881
8. GVIRHYVVCST [BTK_Y334]  0.87
9. RYVTRYIYNRE [HLA-DQB1_Y62]  0.832
10. GTTIHYNYMCN [TP53_Y234_C229G]  0.814
11. GSQERYFELVE [TSC2_Y407]  0.813
12. LKSEMYQKLFK [RGS13_Y146_L150F]  0.769
13. NVTGHYIPPFH [PPA2_Y59_S61P]  0.735
14. DFLSSYSAVNQ [OAT_Y85]  0.703
15. FPHVISARLWR [SMAD4_Y95_Y95S]  0.701
16. SAEEDYMADAK [KCNT1_Y876]  0.686
17. TGEKLYQHKEF [ZNF283_Y627_R629H]  0.665
18. SIKGKYVTALF [KCNH2_Y611_D609G_YF]  0.617
19. YRDALYKSMVD [PHEX_Y250_F252S]  0.592
20. AKRKNYAPVAM [CFAP47_Y557]  0.57
21. LKALKYKSMKI [ITGA11_Y1098]  0.568
22. ELTSVYGSRAR [SENP1_Y349_D350G]  0.567
23. YEREQYADRTR [RBM4_Y355_A359T]  0.55
24. FFRNVYHLASV [RBL1_Y796_K794N_YF]  0.51
25. TKYVAYIESQG [KDM4B_Y34_N29T]  0.508
26. TKDTFYKQRMF [GBA_Y451_P454R]  0.458
27. GLGGGYGGASG [KRT8_Y54]  0.448
28. PTTKTYLPHFD [HBA1_Y43_F44L]  0.307
